Source: patent US20260159579A1 (Pfizer, published 2026)
“And” between values parts separate entries of the source, which are not always exact repeats. Equal entries are not always repeated.

Legend:
[1] = target: Mouse Fc-mouse GDF15 (Mu IgG1Fc_Fxa_Mu GDF15) (mouse); test: SPR BIAcore T200, 37C; Fc-GDF15 captured, monomeric Fc-Fab as analyte
human BMP6 = target: T1, human BMP6 (human, UniProt P22004 382-513, limits assumed); test: BLI, OctetRED 384; family member amine coupled to AR2G biosensor
T1 construct: Bought
T1 sequence (looked up): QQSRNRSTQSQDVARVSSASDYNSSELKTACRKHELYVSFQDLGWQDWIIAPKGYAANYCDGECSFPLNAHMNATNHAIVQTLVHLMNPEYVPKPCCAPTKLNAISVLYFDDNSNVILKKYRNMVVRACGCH
Experimental: (§1) To assess the binding specificity of GDF15_001 to human GDF15, GDF15_001 binding to additional TGFB family members was tested. Analysis was carried out on an Octet Red instrument.
(§2) The TGFB family members were diluted to 10 ug/ml in 10 mM Sodium Acetate pH 4.5 and amine coupled onto AR2G biosensors (catalogue #18-5092, ForteBio) according to the manufacturer's instructions. Monomeric GDF15_001 was diluted to 200 nM in kinetics buffer (catalogue #18-5032 ForteBio). Octet assays were conducted at room temperature with an association time of 300 seconds and a dissociation time of 180 seconds. The data was double referenced (Myszka, D., J. Mol. Recognit 1999; 279-284) and analyzed with Octet Data Analysis software version 8.1 (ForteBio).

human BMP11 = target: T2, human BMP11 (human, UniProt O95390 299-407); test: as above
T2 construct: Bought; also called GDF-11
T2 sequence (looked up): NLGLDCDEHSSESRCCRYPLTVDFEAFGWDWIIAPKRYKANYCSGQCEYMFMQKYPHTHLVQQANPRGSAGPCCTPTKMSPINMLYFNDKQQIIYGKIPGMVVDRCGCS
Experimental: as §1, §2

human TGFß-1 = target: T3, human TGFß-1 (human, UniProt P01137 279-390); test: as above
T3 construct: Bought; also called TGFB-1
Experimental: as §1, §2

human Activin B = target: T4, human Activin B (human, UniProt P09529 293-407); test: as above
T4 construct: Bought
T4 sequence (looked up): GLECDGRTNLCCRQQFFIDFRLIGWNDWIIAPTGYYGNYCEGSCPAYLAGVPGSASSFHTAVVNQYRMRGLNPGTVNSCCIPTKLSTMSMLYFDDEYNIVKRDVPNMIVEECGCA
Experimental: as §1, §2

human BMP2 = target: T5, human BMP2 (human, UniProt P12643 283-396); test: as above
T5 construct: Bought
Experimental: as §1, §2

human BMP9 = target: T6, human BMP9 (human, UniProt Q9UK05 320-429); test: as above
T6 construct: Bought
T6 sequence (looked up): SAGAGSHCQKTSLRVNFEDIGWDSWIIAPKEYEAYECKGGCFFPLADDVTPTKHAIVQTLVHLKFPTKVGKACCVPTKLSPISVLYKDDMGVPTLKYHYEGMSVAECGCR
Experimental: as §1, §2

human GDF8 = target: T7, human GDF8 (human, UniProt O14793 267-375, limits assumed); test: as above
T7 construct: In-house material
T7 sequence (looked up): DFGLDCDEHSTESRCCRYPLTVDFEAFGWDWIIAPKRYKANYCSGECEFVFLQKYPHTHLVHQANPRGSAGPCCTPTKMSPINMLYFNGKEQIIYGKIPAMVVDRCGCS
Experimental: as §1, §2

human Inhibin A = target: T8, human Inhibin A (human, UniProt P05111 233-366; P08476 311-426); test: as above
T8 construct: Bought
T8 sequence (looked up) 1: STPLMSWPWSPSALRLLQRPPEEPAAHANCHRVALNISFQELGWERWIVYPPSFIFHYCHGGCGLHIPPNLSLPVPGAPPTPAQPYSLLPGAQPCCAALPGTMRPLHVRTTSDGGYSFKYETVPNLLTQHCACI
T8 sequence (looked up) 2: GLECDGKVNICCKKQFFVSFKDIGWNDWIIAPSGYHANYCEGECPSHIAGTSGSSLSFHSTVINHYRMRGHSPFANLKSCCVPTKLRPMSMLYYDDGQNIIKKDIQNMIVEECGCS
Experimental: as §1, §2

[2] = target: Mouse Fc-mouse GDF15 (Mu IgG1Fc_Fxa_Mu GDF15) (mouse); test: SPR BIAcore T200, 37C; Fc-GDF15 captured, monomeric Fc-Fab as analyte; average of runs

T5 sequence (P12643 283-396 limits assumed): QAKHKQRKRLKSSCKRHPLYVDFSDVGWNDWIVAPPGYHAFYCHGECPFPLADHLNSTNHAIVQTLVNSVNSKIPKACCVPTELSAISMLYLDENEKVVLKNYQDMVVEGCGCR
T3 sequence (P01137 279-390 limits assumed): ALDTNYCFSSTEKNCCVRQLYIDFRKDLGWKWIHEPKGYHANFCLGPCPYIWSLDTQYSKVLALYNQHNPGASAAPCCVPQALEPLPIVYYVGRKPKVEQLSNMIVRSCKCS

B1: monomeric GDF15_001 (CH23LS-GBT-GDF15_001) (Fab, V domains shown)
VH: QVQLVQSGAEVKKPGSSVKVSCKASGYTFSSYNIDWVRQAPGQGLEWMGGINPIFGTAFYNQKFQGRVTITADESTSTAYMELSSLRSEDTAVYYCAREAITTVGAMDHWGQGTLVTVSS
VL: EIVLTQSPATLSLSPGERATLSCRTSQSVHNYLAWYQQKPGQAPRLLIYDASTRADGIPARFSGSGSGTDFTLTISSLEPEDFAVYYCQQFWSWPWTFGQGTKVEIK
notes: Monovalent 'monomeric Fc-Fab' of GDF15_001 made to measure KD without avidity; also called CH23LS-GDF15_001; monomeric Fc-Fab
T½ min [1]: 3.39 min and 3.73 min
koff [1]: 0.00341 s⁻¹ and 0.0031 s⁻¹
kon [1]: 1.62e+06 M⁻¹ s⁻¹ and 1.7e+06 M⁻¹ s⁻¹
binding result (human BMP6): no binding (tested: 200 nM)
binding result (human BMP11): no binding (tested: 200 nM)
binding result (human TGFß-1): no binding (tested: 200 nM)
binding result (human Activin B): no binding (tested: 200 nM)
binding result (human BMP2): no binding (tested: 200 nM)
binding result (human BMP9): no binding (tested: 200 nM)
binding result (human GDF8): no binding (tested: 200 nM)
binding result (human Inhibin A): no binding (tested: 200 nM)
Kd [2]: 1.97 nM
koff [2]: 0.00326 s⁻¹
kon [2]: 1.66e+06 M⁻¹ s⁻¹
